# Assay: melting temperature; melt of duplexes
# Details: sodium 0.0675 M; strand 1 µM
row,Substance,Tm [°C]
1,CGACGTGCGACATGTGCTG+CAGCACATATTGCACGTCG ((((((((.(.((((((((+)))))))).).)))))))),51.5
2,CGACGTGCCAGATGTGCTG+CAGCACATTGAGCACGTCG ((((((((...((((((((+))))))))...)))))))),52.1
3,CGACGTGCTTCATGTGCTG+CAGCACATCGGGCACGTCG ((((((((...((((((((+))))))))...)))))))),48.9
4,CGACGTGCCCTATGTGCTG+CAGCACATGCAGCACGTCG ((((((((...((((((((+))))))))...)))))))),49.7
5,CGACGTGCGGAATGTGCTG+CAGCACATGCGGCACGTCG ((((((((.(.((((((((+)))))))).).)))))))),54.3
6,CGACGTGCACCATGTGCTG+CAGCACATCAAGCACGTCG ((((((((...((((((((+))))))))...)))))))),42.8
7,CGACGTGCCCTATGTGCTG+CAGCACATCCGGCACGTCG (((((((((..((((((((+))))))))..))))))))),52.2
8,CGACGTGCGTGATGTGCTG+CAGCACATCGGGCACGTCG ((((((((..(((((((((+)))))))))..)))))))),57.5
9,CGACGTGCATTATGTGCTG+CAGCACATAGTGCACGTCG (((((((((.(((((((((+))))))))).))))))))),53.1
10,CGACGTGCTGTATGTGCTG+CAGCACATCGTGCACGTCG ((((((((...((((((((+))))))))...)))))))),46.4
11,CGACGTGCTATATGTGCTG+CAGCACATCACGCACGTCG ((((((((...((((((((+))))))))...)))))))),47.9
12,CGACGTGCTGTATGTGCTG+CAGCACATGCTGCACGTCG ((((((((.(.((((((((+)))))))).).)))))))),54.1
13,CGACGTGCGAGATGTGCTG+CAGCACATTACGCACGTCG (((((((((..((((((((+))))))))..))))))))),55.4
14,CGACGTGCTATATGTGCTG+CAGCACATGGGGCACGTCG ((((((((...((((((((+))))))))...)))))))),51
15,CGACGTGCGCTATGTGCTG+CAGCACATCTAGCACGTCG ((((((((...((((((((+))))))))...)))))))),50.4
16,CGACGTGCCAAATGTGCTG+CAGCACATGTGGCACGTCG ((((((((((.((((((((+)))))))).)))))))))),58.5
17,CGACGTGCCTCATGTGCTG+CAGCACATAGAGCACGTCG ((((((((...((((((((+))))))))...)))))))),51.6
18,CGACGTGCCGAATGTGCTG+CAGCACATGACGCACGTCG ((((((((...((((((((+))))))))...)))))))),50.1
19,CGACGTGCCAGATGTGCTG+CAGCACATTATGCACGTCG ((((((((...((((((((+))))))))...)))))))),50.5
20,CGACGTGCCTCATGTGCTG+CAGCACATGAAGCACGTCG ((((((((.((((((((((+)))))))))).)))))))),56.3
21,CGACGTGCAAGATGTGCTG+CAGCACATCCGGCACGTCG ((((((((..(((((((((+)))))))))..)))))))),54.9
22,CGACGTGCCAGATGTGCTG+CAGCACATTAGGCACGTCG (((((((((..((((((((+))))))))..))))))))),56.2
23,CGACGTGCCAGATGTGCTG+CAGCACATGGCGCACGTCG ((((((((...((((((((+))))))))...)))))))),50.4
24,CGACGTGCCCAATGTGCTG+CAGCACATTGAGCACGTCG ((((((((.((((((((((+)))))))))).)))))))),57.6

row,Substance,Tm [°C]
1,CGACGTGCAAGATGTGCTG+CAGCACATAACGCACGTCG ((((((((...((((((((+))))))))...)))))))),48.6
2,CGACGTGCTCCATGTGCTG+CAGCACATCTTGCACGTCG ((((((((...((((((((+))))))))...)))))))),47.2
3,CGACGTGCGGTATGTGCTG+CAGCACATTTAGCACGTCG ((((((((...((((((((+))))))))...)))))))),54.5
4,CGACGTGCCGAATGTGCTG+CAGCACATAGGGCACGTCG (((((((((..((((((((+))))))))..))))))))),54.4
5,CGACGTGCGTCATGTGCTG+CAGCACATTTGGCACGTCG ((((((((...((((((((+))))))))...)))))))),48.7
6,CGACGTGCAACATGTGCTG+CAGCACATGTGGCACGTCG ((((((((.((((((((((+)))))))))).)))))))),59.3
7,CGACGTGCGCGATGTGCTG+CAGCACATTGGGCACGTCG ((((((((.(.((((((((+)))))))).).)))))))),57.1
8,CGACGTGCAATATGTGCTG+CAGCACATCACGCACGTCG ((((((((...((((((((+))))))))...)))))))),46.8
9,CGACGTGCTCCATGTGCTG+CAGCACATCCGGCACGTCG ((((((((...((((((((+))))))))...)))))))),47.7
10,CGACGTGCACGATGTGCTG+CAGCACATATGGCACGTCG ((((((((...((((((((+))))))))...)))))))),46.9
11,CGACGTGCGCGATGTGCTG+CAGCACATGTGGCACGTCG ((((((((...((((((((+))))))))...)))))))),51.7
12,CGACGTGCATCATGTGCTG+CAGCACATCACGCACGTCG ((((((((.(.((((((((+)))))))).).)))))))),46.6
13,CGACGTGCGTTATGTGCTG+CAGCACATGCGGCACGTCG ((((((((...((((((((+))))))))...)))))))),49.6
14,CGACGTGCCGAATGTGCTG+CAGCACATCCCGCACGTCG ((((((((.(.((((((((+)))))))).).)))))))),49.6
15,CGACGTGCCGAATGTGCTG+CAGCACATTTTGCACGTCG ((((((((..(((((((((+)))))))))..)))))))),51.7
16,CGACGTGCCCTATGTGCTG+CAGCACATCATGCACGTCG ((((((((...((((((((+))))))))...)))))))),46.8
17,CGACGTGCTAAATGTGCTG+CAGCACATCCAGCACGTCG (((((((((..((((((((+))))))))..))))))))),50.8
18,CGACGTGCAAAATGTGCTG+CAGCACATGCGGCACGTCG ((((((((...((((((((+))))))))...)))))))),51.2
19,CGACGTGCTATATGTGCTG+CAGCACATGTTGCACGTCG ((((((((.(.((((((((+)))))))).).)))))))),52.6
20,CGACGTGCGATATGTGCTG+CAGCACATGGAGCACGTCG ((((((((...((((((((+))))))))...)))))))),57.4
21,CGACGTGCTCGATGTGCTG+CAGCACATCAAGCACGTCG (((((((((.(((((((((+))))))))).))))))))),57.2
22,CGACGTGCCAAATGTGCTG+CAGCACATTATGCACGTCG ((((((((..(((((((((+)))))))))..)))))))),51.2
23,CGACGTGCACTATGTGCTG+CAGCACATCGTGCACGTCG ((((((((((.((((((((+)))))))).)))))))))),51.4
24,CGACGTGCGATATGTGCTG+CAGCACATCGAGCACGTCG ((((((((...((((((((+))))))))...)))))))),53.6

row,Substance,Tm [°C]
1,CGACGTGCCCAATGTGCTG+CAGCACATCGGGCACGTCG ((((((((((.((((((((+)))))))).)))))))))),58.9
2,CGACGTGCCGTATGTGCTG+CAGCACATCGTGCACGTCG ((((((((...((((((((+))))))))...)))))))),51
3,CGACGTGCACGATGTGCTG+CAGCACATCAGGCACGTCG ((((((((..(((((((((+)))))))))..)))))))),53.4
4,CGACGTGCTTCATGTGCTG+CAGCACATCATGCACGTCG ((((((((.(.((((((((+)))))))).).)))))))),49.2
5,CGACGTGCACGATGTGCTG+CAGCACATGAAGCACGTCG ((((((((...((((((((+))))))))...)))))))),46.2
6,CGACGTGCCAAATGTGCTG+CAGCACATCAGGCACGTCG (((((((((..((((((((+))))))))..))))))))),54.2
7,CGACGTGCATAATGTGCTG+CAGCACATACTGCACGTCG (((((((((..((((((((+))))))))..))))))))),50.5
8,CGACGTGCTATATGTGCTG+CAGCACATGTGGCACGTCG ((((((((.(.((((((((+)))))))).).)))))))),53.6
9,CGACGTGCGGTATGTGCTG+CAGCACATCTGGCACGTCG ((((((((...((((((((+))))))))...)))))))),51.6
10,CGACGTGCGTCATGTGCTG+CAGCACATGGAGCACGTCG ((((((((..(((((((((+)))))))))..)))))))),58.4
11,CGACGTGCATTATGTGCTG+CAGCACATCATGCACGTCG ((((((((((.((((((((+)))))))).)))))))))),54.1
12,CGACGTGCGGGATGTGCTG+CAGCACATTCCGCACGTCG ((((((((((.((((((((+)))))))).)))))))))),62.8
13,CGACGTGCTACATGTGCTG+CAGCACATTTTGCACGTCG ((((((((.(.((((((((+)))))))).).)))))))),50.4
14,CGACGTGCTTAATGTGCTG+CAGCACATAGCGCACGTCG ((((((((...((((((((+))))))))...)))))))),47.3
15,CGACGTGCCAGATGTGCTG+CAGCACATCAAGCACGTCG ((((((((..(((((((((+)))))))))..)))))))),53.7
16,CGACGTGCGAAATGTGCTG+CAGCACATACAGCACGTCG ((((((((...((((((((+))))))))...)))))))),53.3
17,CGACGTGCATTATGTGCTG+CAGCACATCGCGCACGTCG ((((((((...((((((((+))))))))...)))))))),45.8
18,CGACGTGCTGAATGTGCTG+CAGCACATCATGCACGTCG ((((((((...((((((((+))))))))...)))))))),53.1
19,CGACGTGCCCTATGTGCTG+CAGCACATTGAGCACGTCG ((((((((.(.((((((((+)))))))).).)))))))),51.8
20,CGACGTGCGCTATGTGCTG+CAGCACATGGTGCACGTCG ((((((((.(.((((((((+)))))))).).)))))))),54.6
21,CGACGTGCCGAATGTGCTG+CAGCACATCGCGCACGTCG ((((((((...((((((((+))))))))...)))))))),54.7
22,CGACGTGCTTCATGTGCTG+CAGCACATAGCGCACGTCG ((((((((...((((((((+))))))))...)))))))),47.4
23,CGACGTGCAACATGTGCTG+CAGCACATTACGCACGTCG ((((((((...((((((((+))))))))...)))))))),47.9
24,CGACGTGCCAAATGTGCTG+CAGCACATAGGGCACGTCG (((((((((..((((((((+))))))))..))))))))),54.6
